{
  "source": "paper PMC4914967",
  "about": "“An evolutionarily conserved SSNA1/DIP13 homologue is a component of both basal and apical complexes of Toxoplasma gondii” (Scientific Reports, 2016)",
  "target": "the molecule itself",
  "experiment": "SDS-PAGE with Coomassie staining and anti-His immunoblot; purified His-tagged recombinant TgDIP13 resolved on a gel; bands at ~18 kDa (monomer) and ~36 kDa (dimer)",
  "data": [
    {"protein": "His-tagged recombinant TgDIP13 (Toxoplasma gondii SSNA1/DIP13 homologue) (natural protein, UniProt A0A125YRV3 1-150, looked up, TgDIP13, the SSNA1/DIP13 homologue of Toxoplasma gondii (ToxoDB entry TGME49_295450); the TgDIP13 gene was amplified from T. gondii cDNA with primers ML2448/ML2449 and cloned NdeI/XhoI into pET24a+; Apparent mass of the monomer ~18 kDa; also called T. gondii SSNA1/DIP13 homologue; not shown: His6, C-terminal, kept) MTSTTNSNLHNYNHELVACIDDLRRKREEVHRQIIKEEEDRAKVQKEIALLQERLQKLNDSITRKIQARNEYDKTILETEAAYTKILESAQTLLHVLKRESVHLGRKTSGDRAELPGIGITGVGVDYSPNSVSELSHRRAEKGKPTAGAG", "values": [
      {"measurement": "stoichiometry N", "result": 2}
    ]}
  ]
}
